Laboratory results: paper PMC11339409

Key:
[1] = target: LUJV glycoprotein-1 (GP1) (Lujo virus (LUJV)); assay: cryo-EM structure
[2] = target: LUJV glycoprotein-2 (GP2) (Lujo virus (LUJV)); assay: cryo-EM structure

| Substance | stoichiometry N [1] | stoichiometry N [2] |
| --- | --- | --- |
| LUJV glycoprotein-1 (GP1) (domain or fragment) | 3 | – |
| LUJV glycoprotein-2 (GP2) (domain or fragment) | – | 3 |
